The results in this text go back to publication PMC3098852, “Molecular Design, Functional Characterization and Structural Basis of a Protein Inhibitor Against the HIV-1 Pathogenicity Factor Nef” (PLoS ONE, 2011).

Test [1] has as its target T1, HIV-1 NefSF2 wild type, full length (1-210), C210A (HIV-1 SF2, UniProt P03407, C210A).
T1 construct: source: E. coli BL21(DE3), purified (Ni-NTA, Superdex 75)
Kind of test: ITC. The note with it: both partners purified.

The target of test [2] is T2, HIV-1 NefSF2 (Δ1-44), C210A (HIV-1 SF2, UniProt P03407 45-210, C210A).
T2 construct: source: E. coli BL21(DE3), purified (Ni-NTA, Superdex 75)
The test can be described thus: ITC. The note with it: both partners purified.

B1: GST-NI1-2, GST fusion of Hck-SH3 (78-138) with RT loop V90SWSPD (domain or fragment)
chain: not shown
notes: source: bacteria (pGEX-4T1 Tev vector), purified (GSH resin, Superdex 75); not shown: GST, N-terminal, kept
A word on the Kd: it is the equilibrium constant for the complex coming apart. High values mean a looser complex, low ones a tighter complex. A word on the stoichiometry N: it is a count of units in the complex or per binding partner. For the molecule B1, in test [1], the affinity, expressed as Kd, was 140 ± 6.7 nM; the dH was -8.9 ± 0.02 kcal/mol; the “stoichiometry N” value was determined as 1.07.

B2: NI1-2, Hck-SH3 (78-138) with RT loop V90SWSPD (domain or fragment)
chain: not shown
notes: source: bacteria (pGEX-4T1 Tev vector), purified (GSH resin, Superdex 75)
Turning to B2, in test [2], the Kd is 179 ± 29 nM, the dH was -8.16 ± 0.07 kcal/mol and the “stoichiometry N” value was 0.99.

B3: NI1-3, Hck-SH3 (78-138) with RT loop Y90SPFSW (domain or fragment)
chain: SEDIIVVALYDYYSPFSWDLSFQKGDQMVVLEESGEWWKARSLATRKEGYIPSNYVARVDS
notes: as for B2
For B3, in test [2], the Kd stood at 48 ± 11 nM, the dH is -7.99 ± 0.07 kcal/mol and the “stoichiometry N” value worked out at 0.95.
